± gives the uncertainty stated by the source.
B1: COUP transcription factor 1, residues 83 to 159; numbered along this chain, P10589 (parent)
chain: HIECVVCGDKSSGKHYGQFTCEGCKSFFKRSVRRNLTYTCRANRNCPIDQHHRNQCQYCRLKKCLKVGMRREAVQRG

Variants of: B1
Assay: abundance fitness (aPCA) (normalised: wild type 0, dead -1); higher = more abundant; growth selection in yeast, the domain comes from the species named
Settings: Homo sapiens

Going from HIECVVCGDKSWGKHYGQFTCEGCKSFFKRSVRRNLTYTCRANRNCPIDQHHRNQCQYCRLKKCLKVGMRREAVQRG [S12W] to HIECVVCGDKSTGKHYGQFTCEGCKSFFKRSVRRNLTYTCRANRNCPIDQHHRNQCQYCRLKKCLKVGMRREAVQRG [S12T], the abundance fitness rises from -0.675 ± 0.12 to 0.165 ± 0.047.

HIECVVCGDKSQGKHYGQFTCEGCKSFFKRSVRRNLTYTCRANRNCPIDQHHRNQCQYCRLKKCLKVGMRREAVQRG [S12Q] and HIECVVCGDKSNGKHYGQFTCEGCKSFFKRSVRRNLTYTCRANRNCPIDQHHRNQCQYCRLKKCLKVGMRREAVQRG [S12N] are within error of each other in abundance fitness: 0.007 ± 0.064 for the first, 0.003 ± 0.065 for the second.

Going from HIECVVCGDKSRGKHYGQFTCEGCKSFFKRSVRRNLTYTCRANRNCPIDQHHRNQCQYCRLKKCLKVGMRREAVQRG [S12R] to HIECVVCGDKSYGKHYGQFTCEGCKSFFKRSVRRNLTYTCRANRNCPIDQHHRNQCQYCRLKKCLKVGMRREAVQRG [S12Y], the abundance fitness falls from -0.205 ± 0.051 to -0.489 ± 0.11.

Going from HIECVVCGDKSVGKHYGQFTCEGCKSFFKRSVRRNLTYTCRANRNCPIDQHHRNQCQYCRLKKCLKVGMRREAVQRG [S12V] to HIECVVCGDKSPGKHYGQFTCEGCKSFFKRSVRRNLTYTCRANRNCPIDQHHRNQCQYCRLKKCLKVGMRREAVQRG [S12P], the abundance fitness falls from 0.076 ± 0.043 to -0.094 ± 0.059.

First: HIECVVCGDKSSGKHKGQFTCEGCKSFFKRSVRRNLTYTCRANRNCPIDQHHRNQCQYCRLKKCLKVGMRREAVQRG [Y16K]
Second: HIECVVCGDKSSGKHQGQFTCEGCKSFFKRSVRRNLTYTCRANRNCPIDQHHRNQCQYCRLKKCLKVGMRREAVQRG [Y16Q]
The abundance fitness of the first is lower: -0.209 ± 0.18 for the first, 0.096 ± 0.094 for the second.

HIECVVCGDKSSGKHPGQFTCEGCKSFFKRSVRRNLTYTCRANRNCPIDQHHRNQCQYCRLKKCLKVGMRREAVQRG [Y16P] and HIECVVCGDKSSGKHNGQFTCEGCKSFFKRSVRRNLTYTCRANRNCPIDQHHRNQCQYCRLKKCLKVGMRREAVQRG [Y16N] are within error of each other in abundance fitness: -0.355 ± 0.14 for the first, -0.539 ± 0.2 for the second.

First: HIECVVCGDKSSGKHGGQFTCEGCKSFFKRSVRRNLTYTCRANRNCPIDQHHRNQCQYCRLKKCLKVGMRREAVQRG [Y16G]
Second: HIECVVCGDKSSGKHCGQFTCEGCKSFFKRSVRRNLTYTCRANRNCPIDQHHRNQCQYCRLKKCLKVGMRREAVQRG [Y16C]
The abundance fitness of the first is lower: -0.157 ± 0.061 for the first, 0.074 ± 0.12 for the second.

Going from HIECVVCGDKSSGKHRGQFTCEGCKSFFKRSVRRNLTYTCRANRNCPIDQHHRNQCQYCRLKKCLKVGMRREAVQRG [Y16R] to HIECVVCGDKSSGKHFGQFTCEGCKSFFKRSVRRNLTYTCRANRNCPIDQHHRNQCQYCRLKKCLKVGMRREAVQRG [Y16F], the abundance fitness rises from -0.31 ± 0.08 to 0.201 ± 0.14.

First: HIECVVCGDKSSGKHIGQFTCEGCKSFFKRSVRRNLTYTCRANRNCPIDQHHRNQCQYCRLKKCLKVGMRREAVQRG [Y16I]
Second: HIECVVCGDKSSGKHDGQFTCEGCKSFFKRSVRRNLTYTCRANRNCPIDQHHRNQCQYCRLKKCLKVGMRREAVQRG [Y16D]
The abundance fitness of the first is lower: -0.297 ± 0.21 for the first, 0.111 ± 0.09 for the second.

HIECVVCGDKSSGKHLGQFTCEGCKSFFKRSVRRNLTYTCRANRNCPIDQHHRNQCQYCRLKKCLKVGMRREAVQRG [Y16L] and HIECVVCGDKSSGKHMGQFTCEGCKSFFKRSVRRNLTYTCRANRNCPIDQHHRNQCQYCRLKKCLKVGMRREAVQRG [Y16M] are within error of each other in abundance fitness: -0.152 ± 0.089 for the first, -0.154 ± 0.11 for the second.

Compared with HIECVVCGDKSSGKHEGQFTCEGCKSFFKRSVRRNLTYTCRANRNCPIDQHHRNQCQYCRLKKCLKVGMRREAVQRG [Y16E], HIECVVCGDKSSGKHAGQFTCEGCKSFFKRSVRRNLTYTCRANRNCPIDQHHRNQCQYCRLKKCLKVGMRREAVQRG [Y16A] is lower in abundance fitness: -0.05 ± 0.081 for the first, -0.441 ± 0.11 for the second.

HIECVVCGDKSSGKEYGQFTCEGCKSFFKRSVRRNLTYTCRANRNCPIDQHHRNQCQYCRLKKCLKVGMRREAVQRG [H15E] and HIECVVCGDKSSGKVYGQFTCEGCKSFFKRSVRRNLTYTCRANRNCPIDQHHRNQCQYCRLKKCLKVGMRREAVQRG [H15V] are within error of each other in abundance fitness: 0.202 ± 0.26 for the first, -0.135 ± 0.12 for the second.

Going from HIECVVCGDKSSGKCYGQFTCEGCKSFFKRSVRRNLTYTCRANRNCPIDQHHRNQCQYCRLKKCLKVGMRREAVQRG [H15C] to HIECVVCGDKSSGKNYGQFTCEGCKSFFKRSVRRNLTYTCRANRNCPIDQHHRNQCQYCRLKKCLKVGMRREAVQRG [H15N], the abundance fitness rises from -0.362 ± 0.25 to 0.148 ± 0.24.

Compared with HIECVVCGDKSSGKWYGQFTCEGCKSFFKRSVRRNLTYTCRANRNCPIDQHHRNQCQYCRLKKCLKVGMRREAVQRG [H15W], HIECVVCGDKSSGKYYGQFTCEGCKSFFKRSVRRNLTYTCRANRNCPIDQHHRNQCQYCRLKKCLKVGMRREAVQRG [H15Y] is lower in abundance fitness: 0.196 ± 0.14 for the first, -0.144 ± 0.18 for the second.

HIECVVCGDKSSGKDYGQFTCEGCKSFFKRSVRRNLTYTCRANRNCPIDQHHRNQCQYCRLKKCLKVGMRREAVQRG [H15D] and HIECVVCGDKSSGKPYGQFTCEGCKSFFKRSVRRNLTYTCRANRNCPIDQHHRNQCQYCRLKKCLKVGMRREAVQRG [H15P] are within error of each other in abundance fitness: -0.226 ± 0.24 for the first, 0.125 ± 0.16 for the second.

First: HIECVVCGDKSSGKAYGQFTCEGCKSFFKRSVRRNLTYTCRANRNCPIDQHHRNQCQYCRLKKCLKVGMRREAVQRG [H15A]
Second: HIECVVCGDKSSGKMYGQFTCEGCKSFFKRSVRRNLTYTCRANRNCPIDQHHRNQCQYCRLKKCLKVGMRREAVQRG [H15M]
The abundance fitness of the first is lower: -0.029 ± 0.098 for the first, 0.548 ± 0.39 for the second.

HIECVVCGDKSSGKSYGQFTCEGCKSFFKRSVRRNLTYTCRANRNCPIDQHHRNQCQYCRLKKCLKVGMRREAVQRG [H15S] and HIECVVCGDKSSGKGYGQFTCEGCKSFFKRSVRRNLTYTCRANRNCPIDQHHRNQCQYCRLKKCLKVGMRREAVQRG [H15G] are within error of each other in abundance fitness: -0.212 ± 0.12 for the first, -0.101 ± 0.093 for the second.

In the case of HIECVVCGDKSSGKTYGQFTCEGCKSFFKRSVRRNLTYTCRANRNCPIDQHHRNQCQYCRLKKCLKVGMRREAVQRG [H15T], the abundance fitness is reported as -0.28 ± 0.25.
